Substitutions are numbered along the chain they refer to.

The labels stand for the following.
T1: FL-Pot1 (Schizosaccharomyces pombe, UniProt O13988 1-555)
T1 sequence: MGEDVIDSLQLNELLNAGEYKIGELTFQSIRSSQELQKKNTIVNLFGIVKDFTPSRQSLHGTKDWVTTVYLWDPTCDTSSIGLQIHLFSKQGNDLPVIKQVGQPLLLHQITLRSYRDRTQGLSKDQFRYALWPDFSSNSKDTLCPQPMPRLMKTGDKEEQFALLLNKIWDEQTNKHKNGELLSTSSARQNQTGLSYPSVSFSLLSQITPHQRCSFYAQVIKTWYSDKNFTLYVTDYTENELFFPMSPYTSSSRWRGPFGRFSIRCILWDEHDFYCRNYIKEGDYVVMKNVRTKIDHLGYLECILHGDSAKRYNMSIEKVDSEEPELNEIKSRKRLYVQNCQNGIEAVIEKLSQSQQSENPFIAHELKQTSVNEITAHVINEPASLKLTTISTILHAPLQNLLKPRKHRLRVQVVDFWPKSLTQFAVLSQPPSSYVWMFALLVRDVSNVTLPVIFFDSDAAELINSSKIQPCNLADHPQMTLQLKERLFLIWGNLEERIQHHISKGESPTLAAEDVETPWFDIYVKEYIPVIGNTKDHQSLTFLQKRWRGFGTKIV

T2: Pot1-DBD_S123A (Schizosaccharomyces pombe, UniProt O13988 1-389, S123A)
T2 sequence: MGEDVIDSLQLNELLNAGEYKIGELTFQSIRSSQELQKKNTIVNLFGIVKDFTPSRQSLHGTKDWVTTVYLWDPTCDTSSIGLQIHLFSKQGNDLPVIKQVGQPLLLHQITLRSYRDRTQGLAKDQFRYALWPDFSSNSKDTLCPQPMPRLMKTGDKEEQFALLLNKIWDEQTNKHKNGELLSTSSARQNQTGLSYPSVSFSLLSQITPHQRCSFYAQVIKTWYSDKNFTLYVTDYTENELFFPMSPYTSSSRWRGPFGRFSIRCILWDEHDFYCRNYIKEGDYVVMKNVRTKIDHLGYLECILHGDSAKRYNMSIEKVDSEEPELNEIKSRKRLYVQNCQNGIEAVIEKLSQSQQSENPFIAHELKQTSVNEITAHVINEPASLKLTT

T3: Pot1-DBD (Schizosaccharomyces pombe, UniProt O13988 1-389)
T3 sequence: T2 sequence with A123S

T4: Pot1-DBD_T62A (Schizosaccharomyces pombe, UniProt O13988 1-389, T62A)
T4 sequence: T2 sequence with T62A, A123S

T5: Pot1-DBD_L122A (Schizosaccharomyces pombe, UniProt O13988 1-389, L122A)
T5 sequence: T2 sequence with L122A, A123S

T6: Pot1-DBD_F88A (Schizosaccharomyces pombe, UniProt O13988 1-389, F88A)
T6 sequence: T2 sequence with F88A, A123S

T7: Pot1-DBD_Y115A (Schizosaccharomyces pombe, UniProt O13988 1-389, Y115A)
T7 sequence: T2 sequence with Y115A, A123S

T8: Pot1-DBD_D64A (Schizosaccharomyces pombe, UniProt O13988 1-389, D64A)
T8 sequence: T2 sequence with D64A, A123S

The first data set deals with T1, FL-Pot1. Briefly: EMSA. On the technique in general: Mobility shift assays separate free from complexed probe on a gel.
By Kd is commonly meant the constant that tells how readily two partners part at equilibrium. Read a high Kd as weaker binding. With GGTUACGGTTACGGT (ssDNA, U at 4 = deoxyuridine) [15_T4U], the Kd turned out to be 3 ± 0.4 pM.
GGTTACCCAATGCCA (ssDNA) [6mer_9 comp] gave a Kd of 3.8 ± 0.1 pM.
TTTTTTTTTTTTTTT (ssDNA) [T15]: binding was put at a Kd of 8600 ± 1900 pM.
GGUTACGGTTACGGT (ssDNA, U at 3 = deoxyuridine) [15_T3U] displayed an equilibrium dissociation constant (Kd) of 2.6 ± 0.2 pM.
CGTTTGCCAATGCCA (ssDNA) [15 comp GTT] returned a Kd of 10600 ± 300 pM.
Same read-out and setting: as for GGTTACGGTTAC (ssDNA) [12mer], the figure is 2.8 ± 0.4 pM.
For GGTTACCCAATG (ssDNA) [6mer_6 comp], the Kd worked out at 9.5 ± 0.3 pM.
On the same count and under the same terms, the result for GGTTACGGTTACGGTTAC (ssDNA) [18mer] reads 3.8 ± 0.3 pM.
Same read-out and setting: as for GGTTACGGTTACGGT (ssDNA) [15mer], the figure is 2.2 ± 0.1 pM.
In turn, GGTTACTTTTTTTTT (ssDNA) [6mer_T9] yielded a Kd of 2.6 ± 0.2 pM.
Still for that read-out and setting: as for GGTTACGGTTACGG (ssDNA) [14mer], the figure is 2.4 ± 0.4 pM.
GGTTACGGTTACGGTT (ssDNA) [16mer] gave a Kd of 2.2 ± 0.04 pM.
GGTTACACGGTTACACGGT (ssDNA) [15mer_2xAC] yielded a Kd of 3.2 ± 0.3 pM.
GGTTACGGTTACGGTTA (ssDNA) [17mer]: binding was characterised by a dissociation constant (Kd) of 2.3 ± 0.1 pM.
GGTTACTTTTTT (ssDNA) [6mer_T6] had a dissociation constant Kd of 3.2 ± 0.3 pM.
Same read-out and setting: as for GGTTACGGTTACG (ssDNA) [13mer], the figure is 2.3 ± 0.3 pM.

Another data set addresses T2, Pot1-DBD_S123A. Description: EMSA.
Turning to GGTTACGGTTAC (ssDNA) [12mer], binding was put at a Kd of 8.2 ± 0.9 pM.
With GGTTACGGTTACGGT (ssDNA) [15mer], binding was put at a Kd of 3.7 ± 0.3 pM.

The next data set has as its target T3, Pot1-DBD. Description: EMSA.
GGTTACGGTTAC (ssDNA) [12mer]: the affinity, expressed as Kd, was 4 ± 0.3 pM.
Molecule GGTTACGGTTACGGT (ssDNA) [15mer] registered a Kd of 2.9 ± 0.3 pM.

For a further data set, the target named is T4, Pot1-DBD_T62A. Description: EMSA.
In turn, GGTTACGGTTAC (ssDNA) [12mer] had an equilibrium dissociation constant (Kd) of 48 ± 8 pM.
On the same count and under the same terms, the result for GGTTACGGTTACGGT (ssDNA) [15mer] reads 6.2 ± 0.6 pM.

The next data set addresses T5, Pot1-DBD_L122A. Briefly: EMSA.
GGTTACGGTTAC (ssDNA) [12mer] yielded a dissociation constant (Kd) of 770 ± 230 pM.
Turning to GGTTACGGTTACGGT (ssDNA) [15mer], the Kd came to 10 ± 1.4 pM.

For the next data set, the target named is T6, Pot1-DBD_F88A. Briefly: EMSA.
As for GGTTACGGTTAC (ssDNA) [12mer], the dissociation constant Kd turned out to be 7700 ± 1800 pM.
In turn, GGTTACGGTTACGGT (ssDNA) [15mer] gave a dissociation constant (Kd) of 120 ± 30 pM.

In another data set the target is T7, Pot1-DBD_Y115A. Briefly: EMSA.
GGTTACGGTTAC (ssDNA) [12mer]: binding was put at a Kd of 49 ± 5 pM.
The molecule GGTTACGGTTACGGT (ssDNA) [15mer] showed a dissociation constant (Kd) of 8 ± 0.7 pM.

The target in the next data set is T8, Pot1-DBD_D64A. Briefly: EMSA.
In turn, GGTTACGGTTAC (ssDNA) [12mer] displayed a dissociation constant Kd of 3400 ± 670 pM.
Consider GGTTACGGTTACGGT (ssDNA) [15mer], for which the Kd turned out to be 18 ± 2.4 pM.

Source of the values: paper PMC3184176.
